The target in this experiment is T1, 甲状腺素受体相互作用蛋白15 (thyroid receptor interacting protein 15, TRIP15) (human, UniProt P61201 1-443).
T1 construct: Purified prokaryotic expression product of the TRIP15 gene; also called TRIP15蛋白; 人TRIP15蛋白
The experiment in a line: indirect ELISA, phage antibody on purified TRIP15 antigen. Background: An ELISA detects its analyte on a solid surface through an enzyme-linked reagent.

T1 sequence (P61201 whole entry): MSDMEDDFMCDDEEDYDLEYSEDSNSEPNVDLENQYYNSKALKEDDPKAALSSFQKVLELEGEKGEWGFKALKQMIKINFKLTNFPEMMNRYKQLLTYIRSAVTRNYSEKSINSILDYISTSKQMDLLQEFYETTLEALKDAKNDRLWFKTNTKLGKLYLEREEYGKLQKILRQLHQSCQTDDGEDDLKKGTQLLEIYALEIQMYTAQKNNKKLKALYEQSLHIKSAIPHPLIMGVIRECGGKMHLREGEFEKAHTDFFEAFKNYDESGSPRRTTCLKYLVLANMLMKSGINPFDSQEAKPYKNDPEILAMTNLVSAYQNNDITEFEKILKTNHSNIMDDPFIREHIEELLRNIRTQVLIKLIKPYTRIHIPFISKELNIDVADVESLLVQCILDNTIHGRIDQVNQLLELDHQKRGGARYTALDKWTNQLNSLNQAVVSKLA

B1: 抗TRIP15噬菌体抗体 (anti-TRIP15 phage-displayed human single-chain antibody, positive clone) (scFv, V domains shown)
VH: EVQLLESGGGLVQPGGSLRLSCAASGFTFSSYAMSWVRQAPGKGLEWVSSISNDGLKTLYADSVKGRFTISRDNSKNTLYLQMNSLRAEDTAVYYCAKNTGSFDYWGQGTLVTV
VL: DIQMTQSPSSLSASVGDRVTITCRASQSISSYLNWYQQKPGKAPKLLIYRASNLQSGVPSRFSGSGSGTDFTLTISSLQPEDFATYYCQQVLRRPATFGQGTKVEIKR
notes: also called 阳性克隆的噬菌体抗体; 针对TRIP15抗原的scFv
In the case of B1, the binding result is given as “binds”.
